One data set deals with ALYREFN (human). Briefly: filter binding. The note with it: Filter binding: 150 mM KCl, 20 mM HEPES pH 7.9, 2 mM MgCl2, 5% glycerol, 0.5 mM TCEP, +/-1 mM ATPgS, 50 nM RNA, 20 C, 45 min; EJC assembly for TREX-EJC-RNA: ….
The test system of another data set is UAP56 (human). Briefly: filter binding. As to conditions: Filter binding: 150 mM KCl, 20 mM HEPES pH 7.9, 2 mM MgCl2, 5% glycerol, 0.5 mM TCEP, +/-1 mM ATPgS, 50 nM RNA, 20 C, 45 min; EJC assembly for TREX-EJC-RNA: ….
The target in data set [1] is ALYREF UBM (Homo sapiens) (UniProt Q86V81). As to conditions: cited from earlier work.

UAP56, sequence (Q13838 2-428): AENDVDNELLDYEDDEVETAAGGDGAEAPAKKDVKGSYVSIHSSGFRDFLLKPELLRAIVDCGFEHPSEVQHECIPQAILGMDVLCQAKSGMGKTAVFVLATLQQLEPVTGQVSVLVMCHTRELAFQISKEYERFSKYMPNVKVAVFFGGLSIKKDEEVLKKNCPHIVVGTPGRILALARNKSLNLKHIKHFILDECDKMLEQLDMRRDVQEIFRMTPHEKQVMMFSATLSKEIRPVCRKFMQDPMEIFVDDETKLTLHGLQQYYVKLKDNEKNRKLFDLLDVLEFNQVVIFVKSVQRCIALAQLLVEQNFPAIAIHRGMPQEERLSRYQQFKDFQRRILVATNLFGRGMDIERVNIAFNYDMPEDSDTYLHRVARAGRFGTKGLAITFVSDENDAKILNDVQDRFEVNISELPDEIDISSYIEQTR

As a reminder, the Kd is the constant that tells how readily two partners part at equilibrium. Regarding 400-nt AdML RNA, the equilibrium dissociation constant (Kd) turned out to be 600 nM in the data set with ALYREFN (human) and 900 nM in the data set with UAP56 (human).

In the case of UAP56 (from UniProt Q13838), the Kd in data set [1] was 2900 nM.

The values are drawn from article PMC7614608.
